# Reference: US20030054411A1, “GPR motifs and uses thereof” (priority 2001, published 2003)
# B1: AGS3: Activator of G-protein Signalling 3; bioactive 74 amino acid fragment isolated in yeast screen, tested as GST fusion (protein)
# chain: MLIKYQSSRIDDQRCPPPDVLPRGPTMPDEDFFSLIQRVQAKRMDEQRVDLAGSPDQEASGLPDPRQQCPPGAS
# modifications: left off: a dimerising Fc or GST
# Tested on: Giα3 in DDT1-MF2 cell lysates
# Experiment: GST-AGS3 interaction with endogenous Giα3 in cell lysates
# Type: binding
# Settings: 30 uM GDP or GTPγS
# Text: A) Sequence of full length rat AGS3. The shaded and overlined sequences represent the tetratricopeptide repeat motif and a repeated segment of amino acids (I-IV), respectively, as discussed in the text. The underlined amino acids indicate the fragment (cDNA #53) isolated in the original yeast screen. B) The four repeat domains in the carboxyl terminus half of AGS3, human LGN, the predicted C. elegans protein and related sequences identified by the motif search program MEME were aligned and used to define a consensus sequence as described in the Examples. Right panel—Interaction of wild type AGS3 and AGS3 mutants with Giα2 in mammalian cell extracts. The AGS3 eDNA isolated in the yeast screen and shown to interact with Gα subunits (FIG. 2B) was modified by site-directed mutagenesis to disrupt conserved residues within the GPR motif. The number of the amino acids altered in the mutant constructs (F8R, Q15A and R23F) refers to their position in the sequence found in the left panel aligning the conserved domains. […] Giα subunits were detected on membrane transfers with the Giα3 antibody and Gβ was detected with an amino terminus antibody. […]
# Immunoblotting and G-protein interaction assays. […] Bound proteins were detected by immunoblotting membrane transfers with specific antisera. […]
molecule,measurement,value
B1,nucleotide preference of interaction with Gα in crude cell lysate,preferentially interacted with GαGDP versus GTPγS
